Key:
Test in all cases: SPR (Biacore); KD of SG1 divided by KD of the variant for this FcgR;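 further: relative to parent M103205H795-SG1 carrying the SG1 human heavy chain constant region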
[1] = target: T1, cynomolgus monkey FcγRIIa2 extracellular domain with C-terminal His-tag (cynomolgus monkey)
T1 construct: Expressed in FreeStyle 293 cells and purified; also called cyno FcγRIIa2; cynoFcgRIIa2; not shown: C-terminal His-tag
T1 chain: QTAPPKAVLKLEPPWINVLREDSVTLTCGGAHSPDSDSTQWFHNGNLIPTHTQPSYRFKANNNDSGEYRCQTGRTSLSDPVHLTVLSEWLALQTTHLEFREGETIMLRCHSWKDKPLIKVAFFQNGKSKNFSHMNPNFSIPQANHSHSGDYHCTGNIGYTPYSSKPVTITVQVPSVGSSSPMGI
Protocol: (§1) The kinetic analysis of interactions between these antibodies and FcγR was carried out using BIACORE® T200 or BIACORE® 4000 (GE Healthcare). HBS-EP+ (GE Healthcare) was used as the running buffer, and the measurement temperature was set to 25° C. A chip produced by immobilizing Protein A. Protein A/G or mouse anti-human IgG kappa light chain (BD Biosciences) onto a Series S Sensor Chip CM4 or CM5 (GE Healthcare) by the amine-coupling method was used. […] After the measurement, the antibody captured on the chip was washed off by allowing reaction with 10 mM glycine-HCl, pH1.5 and 25 mM NaOH so that the chip was regenerated and used repeatedly. The sensorgrams obtained as measurement results were analyzed by the 1:1 Langmuir binding model using the BIACORE® Evaluation Software to calculate the binding rate constant ka (L/mol/s) and dissociation rate constant kd (l/s), and the dissociation constant KD (mol/L) was calculated from these values. […] Regarding such interactions, KD values were calculated using the following 1:1 binding model described in BIACORE® T100 Software Handbook BR1006-48 Edition AE.
(§2) The resultant variants were expressed using M103202L889-SK1 as light chain and their affinity to human and cynoFcγRs were evaluated (Table 20).

[2] = target: T2, cynomolgus monkey FcγRIIa3 extracellular domain with C-terminal His-tag (cynomolgus monkey)
T2 construct: Expressed in FreeStyle 293 cells and purified; also called cyno FcγRIIa3; cynoFcgRIIa3; not shown: C-terminal His-tag
T2 chain: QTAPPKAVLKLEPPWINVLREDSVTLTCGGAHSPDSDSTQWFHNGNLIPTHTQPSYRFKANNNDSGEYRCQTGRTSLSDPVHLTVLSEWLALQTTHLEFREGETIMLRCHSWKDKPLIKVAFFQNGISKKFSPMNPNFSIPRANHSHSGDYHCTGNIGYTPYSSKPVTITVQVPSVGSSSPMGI
Protocol: as §1, §2

[3] = target: T3, cynomolgus monkey FcγRIIb extracellular domain with C-terminal His-tag (cynomolgus monkey)
T3 construct: Expressed in FreeStyle 293 cells and purified; also called cyno FcγRIIb; cynoFcγRIIb; not shown: C-terminal His-tag
T3 chain: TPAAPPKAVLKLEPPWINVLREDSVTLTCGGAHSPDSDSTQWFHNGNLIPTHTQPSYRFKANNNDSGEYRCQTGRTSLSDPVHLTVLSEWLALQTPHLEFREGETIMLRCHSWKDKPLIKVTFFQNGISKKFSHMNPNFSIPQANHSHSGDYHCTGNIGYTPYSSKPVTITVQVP
Protocol: as §1, §2

[4] = target: T4, cynomolgus monkey FcγRIIIaS extracellular domain with C-terminal His-tag (cynomolgus monkey, UniProt Q8SPW2 21-206 at identity 1.00))
T4 construct: Expressed in FreeStyle 293 cells and purified; also called cyno FcγRIIIaS; cynoFcγRIIIaS; not shown: C-terminal His-tag
T4 chain: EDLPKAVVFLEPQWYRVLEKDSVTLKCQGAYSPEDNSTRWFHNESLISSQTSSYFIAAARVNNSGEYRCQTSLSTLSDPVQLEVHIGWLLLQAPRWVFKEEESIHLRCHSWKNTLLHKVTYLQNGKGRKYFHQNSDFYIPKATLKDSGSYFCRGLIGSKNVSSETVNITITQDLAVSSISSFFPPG
Protocol: as §1, §2

[5] = target: T5, human FcγRIIIaV extracellular domain with C-terminal His-tag (human, UniProt P08637 17-208)
T5 construct: Expressed in FreeStyle 293 cells and purified; also called FcgRIIIaV; not shown: C-terminal His-tag
Protocol: as §1, §2

T5 sequence (P08637 17-208 F176V): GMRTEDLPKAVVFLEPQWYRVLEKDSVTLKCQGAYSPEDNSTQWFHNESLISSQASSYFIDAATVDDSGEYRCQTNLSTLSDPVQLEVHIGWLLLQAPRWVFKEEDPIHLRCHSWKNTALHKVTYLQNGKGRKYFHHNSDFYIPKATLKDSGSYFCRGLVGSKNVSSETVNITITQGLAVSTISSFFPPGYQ

B1: MS_M103205H795-SG1/M103202L889-SK1 (antibody, human IgG1, kappa)
heavy: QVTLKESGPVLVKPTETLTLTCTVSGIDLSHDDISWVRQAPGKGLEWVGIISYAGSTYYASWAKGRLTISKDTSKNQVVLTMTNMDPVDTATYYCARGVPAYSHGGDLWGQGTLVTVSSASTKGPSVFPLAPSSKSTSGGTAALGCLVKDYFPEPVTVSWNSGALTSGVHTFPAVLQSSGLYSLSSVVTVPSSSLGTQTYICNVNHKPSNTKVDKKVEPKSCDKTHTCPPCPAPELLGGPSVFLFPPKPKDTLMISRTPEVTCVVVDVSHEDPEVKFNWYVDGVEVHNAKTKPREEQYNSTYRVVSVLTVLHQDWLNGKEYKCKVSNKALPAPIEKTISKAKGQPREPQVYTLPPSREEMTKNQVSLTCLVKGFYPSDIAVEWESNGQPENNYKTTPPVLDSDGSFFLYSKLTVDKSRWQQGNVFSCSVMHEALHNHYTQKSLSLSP
light: DIVMTQSPATLSLSPGERATLSCTSSQSVYHANWLSWFQQKPGQPPKLLIYWASTLAYGVPSRFSGSGSGTDFTLTISSLQPEDAATYYCAGGYGGGRYAFGQGTKVEIKRTVAAPSVFIFPPSDEQLKSGTASVVCLLNNFYPREAKVQWKVDNALQSGNSQESVTEQDSKDSTYSLSSTLTLSKADYEKHKVYACEVTHQGLSSPVTKSFNRGEC
notes: Anti-latent myostatin IgG; also called MS1032LO06-SG1
[1]
  KD fold (SG1 = 1): 1 fold
[2]
  KD fold (SG1 = 1): 1 fold
[3]
  KD fold (SG1 = 1): 1 fold
[4]
  KD fold (SG1 = 1): 1 fold
[5]
  KD fold (SG1 = 1): 1 fold

B2: M103205H795-MY052 / M103202L889-SK1 (antibody, human IgG1, kappa)
heavy: QVTLKESGPVLVKPTETLTLTCTVSGIDLSHDDISWVRQAPGKGLEWVGIISYAGSTYYASWAKGRLTISKDTSKNQVVLTMTNMDPVDTATYYCARGVPAYSHGGDLWGQGTLVTVSSASTKGPSVFPLAPSSKSTSGGTAALGCLVKDYFPEPVTVSWNSGALTSGVHTFPAVLQSSGLYSLSSVVTVPSSSLGTQTYICNVNHKPSNTKVDKKVEPKSCDKTHTCPPCPAPELLNGPSVFLFPPKPKDTLMISRTPEVTCVVVDVSEEDPEVKFNWYVDGVEVHNAKTKPREEQYNSTYRVVSVLTVLHQDWLNGKEYKCKVSNKALPAPIEKTISKAKGQPREPQVYTLPPSREEMTKNQVSLTCLVKGFYPSDIAVEWESNGQPENNYKTTPMVLDSDGSFFLYSKLTVDKSRWQQGNVFSCSVMHEALHNHYTQKSLSLSP
light: DIVMTQSPATLSLSPGERATLSCTSSQSVYHANWLSWFQQKPGQPPKLLIYWASTLAYGVPSRFSGSGSGTDFTLTISSLQPEDAATYYCAGGYGGGRYAFGQGTKVEIKRTVAAPSVFIFPPSDEQLKSGTASVVCLLNNFYPREAKVQWKVDNALQSGNSQESVTEQDSKDSTYSLSSTLTLSKADYEKHKVYACEVTHQGLSSPVTKSFNRGEC
notes: Fc variant of M103205H795-SG1, expressed with M103202L889-SK1 as light chain; parent of the position 396 variants
[1]
  KD fold (SG1 = 1): 3.4 fold
[2]
  KD fold (SG1 = 1): 4.4 fold
[3]
  KD fold (SG1 = 1): 3.9 fold
[4]
  KD fold (SG1 = 1): 0.24 fold
[5]
  KD fold (SG1 = 1): 0.54 fold

B3: M103205H795-MY168 / M103202L889-SK1 (antibody, human IgG1, kappa)
heavy: QVTLKESGPVLVKPTETLTLTCTVSGIDLSHDDISWVRQAPGKGLEWVGIISYAGSTYYASWAKGRLTISKDTSKNQVVLTMTNMDPVDTATYYCARGVPAYSHGGDLWGQGTLVTVSSASTKGPSVFPLAPSSKSTSGGTAALGCLVKDYFPEPVTVSWNSGALTSGVHTFPAVLQSSGLYSLSSVVTVPSSSLGTQTYICNVNHKPSNTKVDKKVEPKSCDKTHTCPPCPAPELLNGPSVFLFPPKPKDTLMISRTPEVTCVVVDVSEEDPEVKFNWYVDGVEVHNAKTKPREEQYNSTYRVVSVLTVLHQDWLNGKEYKCKVSNKALPAPIEKTISKAKGQPREPQVYTLPPSREEMTKNQVSLTCLVKGFYPSDIAVEWESNGQPENNYKTTPAVLDSDGSFFLYSKLTVDKSRWQQGNVFSCSVMHEALHNHYTQKSLSLSP
light: DIVMTQSPATLSLSPGERATLSCTSSQSVYHANWLSWFQQKPGQPPKLLIYWASTLAYGVPSRFSGSGSGTDFTLTISSLQPEDAATYYCAGGYGGGRYAFGQGTKVEIKRTVAAPSVFIFPPSDEQLKSGTASVVCLLNNFYPREAKVQWKVDNALQSGNSQESVTEQDSKDSTYSLSSTLTLSKADYEKHKVYACEVTHQGLSSPVTKSFNRGEC
notes: Position 396 variant derived from MY052, expressed with M103202L889-SK1 as light chain
[1]
  KD fold (SG1 = 1): 2 fold
[2]
  KD fold (SG1 = 1): 1.7 fold
[3]
  KD fold (SG1 = 1): 1.5 fold
[4]
  KD fold (SG1 = 1): 0.08 fold
[5]
  KD fold (SG1 = 1): 0.1 fold

B4: M103205H795-MY169 / M103202L889-SK1 (antibody, human IgG1, kappa)
heavy: QVTLKESGPVLVKPTETLTLTCTVSGIDLSHDDISWVRQAPGKGLEWVGIISYAGSTYYASWAKGRLTISKDTSKNQVVLTMTNMDPVDTATYYCARGVPAYSHGGDLWGQGTLVTVSSASTKGPSVFPLAPSSKSTSGGTAALGCLVKDYFPEPVTVSWNSGALTSGVHTFPAVLQSSGLYSLSSVVTVPSSSLGTQTYICNVNHKPSNTKVDKKVEPKSCDKTHTCPPCPAPELLNGPSVFLFPPKPKDTLMISRTPEVTCVVVDVSEEDPEVKFNWYVDGVEVHNAKTKPREEQYNSTYRVVSVLTVLHQDWLNGKEYKCKVSNKALPAPIEKTISKAKGQPREPQVYTLPPSREEMTKNQVSLTCLVKGFYPSDIAVEWESNGQPENNYKTTPDVLDSDGSFFLYSKLTVDKSRWQQGNVFSCSVMHEALHNHYTQKSLSLSP
light: DIVMTQSPATLSLSPGERATLSCTSSQSVYHANWLSWFQQKPGQPPKLLIYWASTLAYGVPSRFSGSGSGTDFTLTISSLQPEDAATYYCAGGYGGGRYAFGQGTKVEIKRTVAAPSVFIFPPSDEQLKSGTASVVCLLNNFYPREAKVQWKVDNALQSGNSQESVTEQDSKDSTYSLSSTLTLSKADYEKHKVYACEVTHQGLSSPVTKSFNRGEC
notes: as for B3
[1]
  KD fold (SG1 = 1): 2.2 fold
[2]
  KD fold (SG1 = 1): 1.7 fold
[3]
  KD fold (SG1 = 1): 1.8 fold
[4]
  KD fold (SG1 = 1): 0.1 fold
[5]
  KD fold (SG1 = 1): 0.13 fold

B5: M103205H795-MY170 / M103202L889-SK1 (antibody, human IgG1, kappa)
heavy: QVTLKESGPVLVKPTETLTLTCTVSGIDLSHDDISWVRQAPGKGLEWVGIISYAGSTYYASWAKGRLTISKDTSKNQVVLTMTNMDPVDTATYYCARGVPAYSHGGDLWGQGTLVTVSSASTKGPSVFPLAPSSKSTSGGTAALGCLVKDYFPEPVTVSWNSGALTSGVHTFPAVLQSSGLYSLSSVVTVPSSSLGTQTYICNVNHKPSNTKVDKKVEPKSCDKTHTCPPCPAPELLNGPSVFLFPPKPKDTLMISRTPEVTCVVVDVSEEDPEVKFNWYVDGVEVHNAKTKPREEQYNSTYRVVSVLTVLHQDWLNGKEYKCKVSNKALPAPIEKTISKAKGQPREPQVYTLPPSREEMTKNQVSLTCLVKGFYPSDIAVEWESNGQPENNYKTTPEVLDSDGSFFLYSKLTVDKSRWQQGNVFSCSVMHEALHNHYTQKSLSLSP
light: DIVMTQSPATLSLSPGERATLSCTSSQSVYHANWLSWFQQKPGQPPKLLIYWASTLAYGVPSRFSGSGSGTDFTLTISSLQPEDAATYYCAGGYGGGRYAFGQGTKVEIKRTVAAPSVFIFPPSDEQLKSGTASVVCLLNNFYPREAKVQWKVDNALQSGNSQESVTEQDSKDSTYSLSSTLTLSKADYEKHKVYACEVTHQGLSSPVTKSFNRGEC
notes: as for B3
[1]
  KD fold (SG1 = 1): 2.1 fold
[2]
  KD fold (SG1 = 1): 1.4 fold
[3]
  KD fold (SG1 = 1): 1.5 fold
[4]
  KD fold (SG1 = 1): 0.12 fold
[5]
  KD fold (SG1 = 1): 0.13 fold

B6: M103205H795-MY171 / M103202L889-SK1 (antibody, human IgG1, kappa)
heavy: QVTLKESGPVLVKPTETLTLTCTVSGIDLSHDDISWVRQAPGKGLEWVGIISYAGSTYYASWAKGRLTISKDTSKNQVVLTMTNMDPVDTATYYCARGVPAYSHGGDLWGQGTLVTVSSASTKGPSVFPLAPSSKSTSGGTAALGCLVKDYFPEPVTVSWNSGALTSGVHTFPAVLQSSGLYSLSSVVTVPSSSLGTQTYICNVNHKPSNTKVDKKVEPKSCDKTHTCPPCPAPELLNGPSVFLFPPKPKDTLMISRTPEVTCVVVDVSEEDPEVKFNWYVDGVEVHNAKTKPREEQYNSTYRVVSVLTVLHQDWLNGKEYKCKVSNKALPAPIEKTISKAKGQPREPQVYTLPPSREEMTKNQVSLTCLVKGFYPSDIAVEWESNGQPENNYKTTPFVLDSDGSFFLYSKLTVDKSRWQQGNVFSCSVMHEALHNHYTQKSLSLSP
light: DIVMTQSPATLSLSPGERATLSCTSSQSVYHANWLSWFQQKPGQPPKLLIYWASTLAYGVPSRFSGSGSGTDFTLTISSLQPEDAATYYCAGGYGGGRYAFGQGTKVEIKRTVAAPSVFIFPPSDEQLKSGTASVVCLLNNFYPREAKVQWKVDNALQSGNSQESVTEQDSKDSTYSLSSTLTLSKADYEKHKVYACEVTHQGLSSPVTKSFNRGEC
notes: as for B3
[1]
  KD fold (SG1 = 1): 2.2 fold
[2]
  KD fold (SG1 = 1): 1.8 fold
[3]
  KD fold (SG1 = 1): 1.8 fold
[4]
  KD fold (SG1 = 1): 0.11 fold
[5]
  KD fold (SG1 = 1): 0.14 fold

— patent US20200317768A1 (published 2020)
